Assay [1] has as its target T1, mouse cMET (mouse, UniProt P16056 25-931, limits assumed).
T1 construct: ELISA antigen
As to the kind of experiment: ELISA, antibody titrated on cMet of the named species, OD 450 nm. On the technique in general: An ELISA detects its analyte on a solid surface through an enzyme-linked reagent.

The target in assay [2] is T2, Canine (limits assumed).
T2 construct: also called canine cMet; dog cMET
T2 receptor: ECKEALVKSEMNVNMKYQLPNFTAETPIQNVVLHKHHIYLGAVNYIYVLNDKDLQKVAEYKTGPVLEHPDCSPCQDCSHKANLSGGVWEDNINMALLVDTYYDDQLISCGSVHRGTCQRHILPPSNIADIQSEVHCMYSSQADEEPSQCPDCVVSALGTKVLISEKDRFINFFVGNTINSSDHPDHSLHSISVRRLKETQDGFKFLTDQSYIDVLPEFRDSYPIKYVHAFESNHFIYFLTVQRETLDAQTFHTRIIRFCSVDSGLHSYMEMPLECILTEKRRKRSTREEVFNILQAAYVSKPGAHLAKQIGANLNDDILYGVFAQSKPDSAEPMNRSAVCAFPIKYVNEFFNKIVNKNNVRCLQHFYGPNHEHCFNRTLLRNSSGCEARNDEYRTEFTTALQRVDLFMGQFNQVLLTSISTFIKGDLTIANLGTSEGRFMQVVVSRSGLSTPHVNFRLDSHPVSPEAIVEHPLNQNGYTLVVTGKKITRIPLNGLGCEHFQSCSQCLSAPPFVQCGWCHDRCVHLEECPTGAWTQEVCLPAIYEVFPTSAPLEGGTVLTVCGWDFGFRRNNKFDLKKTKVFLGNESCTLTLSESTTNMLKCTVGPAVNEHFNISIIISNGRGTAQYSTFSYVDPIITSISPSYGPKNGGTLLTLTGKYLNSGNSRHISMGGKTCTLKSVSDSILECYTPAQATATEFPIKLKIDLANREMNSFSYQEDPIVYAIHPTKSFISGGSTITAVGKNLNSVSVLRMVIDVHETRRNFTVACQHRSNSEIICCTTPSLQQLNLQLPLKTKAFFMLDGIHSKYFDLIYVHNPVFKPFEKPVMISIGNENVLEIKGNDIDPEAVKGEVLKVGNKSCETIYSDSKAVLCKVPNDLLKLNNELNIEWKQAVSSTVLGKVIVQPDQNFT
The description is as above.

In assay [3] the target is T1, mouse cMET. The assay is described as above. This is another data set of the same source.
Assay [4] addresses T2, Canine. The assay is described as above.
Assay [5] addresses T1, mouse cMET. The assay is described as above. The source holds these as a separate data set.
Assay [6] concerns the target T2, Canine. The description is as above.
In assay [7] the target is T3, rat cMET (rat, UniProt P97523 25-935, limits assumed).
T3 construct: ELISA antigen; also called rMET
As to the kind of experiment: ELISA on rat cMET, ratio to parental P3D12.
Target sequence in this assay (P97523 25-935 limits assumed): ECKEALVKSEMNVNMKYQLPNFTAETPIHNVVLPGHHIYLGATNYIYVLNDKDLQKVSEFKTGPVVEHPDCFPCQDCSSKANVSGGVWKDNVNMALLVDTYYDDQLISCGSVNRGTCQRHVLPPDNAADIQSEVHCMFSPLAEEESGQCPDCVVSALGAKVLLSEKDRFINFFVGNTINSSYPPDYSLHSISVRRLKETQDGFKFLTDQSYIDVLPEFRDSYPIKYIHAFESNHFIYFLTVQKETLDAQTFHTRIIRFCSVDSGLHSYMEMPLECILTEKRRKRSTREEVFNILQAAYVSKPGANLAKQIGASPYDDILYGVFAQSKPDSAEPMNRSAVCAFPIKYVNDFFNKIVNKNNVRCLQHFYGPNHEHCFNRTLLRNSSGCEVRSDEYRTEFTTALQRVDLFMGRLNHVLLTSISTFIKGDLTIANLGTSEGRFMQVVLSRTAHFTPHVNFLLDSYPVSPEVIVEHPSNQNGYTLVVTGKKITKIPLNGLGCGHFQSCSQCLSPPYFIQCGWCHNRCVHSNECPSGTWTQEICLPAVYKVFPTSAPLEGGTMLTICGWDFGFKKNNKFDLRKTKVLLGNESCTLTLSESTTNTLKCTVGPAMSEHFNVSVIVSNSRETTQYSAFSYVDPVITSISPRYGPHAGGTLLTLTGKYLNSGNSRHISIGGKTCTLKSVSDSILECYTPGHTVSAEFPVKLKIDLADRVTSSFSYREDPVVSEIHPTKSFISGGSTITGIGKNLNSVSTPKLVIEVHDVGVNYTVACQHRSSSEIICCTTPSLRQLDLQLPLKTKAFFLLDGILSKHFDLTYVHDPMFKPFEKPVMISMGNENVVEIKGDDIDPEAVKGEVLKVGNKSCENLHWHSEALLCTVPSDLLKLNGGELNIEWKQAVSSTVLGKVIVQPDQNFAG

The target in a further assay is T4, human cMET (human, UniProt P08581 25-932, limits assumed).
T4 construct: also called hMET
T4 sequence (P08581 25-932 limits assumed): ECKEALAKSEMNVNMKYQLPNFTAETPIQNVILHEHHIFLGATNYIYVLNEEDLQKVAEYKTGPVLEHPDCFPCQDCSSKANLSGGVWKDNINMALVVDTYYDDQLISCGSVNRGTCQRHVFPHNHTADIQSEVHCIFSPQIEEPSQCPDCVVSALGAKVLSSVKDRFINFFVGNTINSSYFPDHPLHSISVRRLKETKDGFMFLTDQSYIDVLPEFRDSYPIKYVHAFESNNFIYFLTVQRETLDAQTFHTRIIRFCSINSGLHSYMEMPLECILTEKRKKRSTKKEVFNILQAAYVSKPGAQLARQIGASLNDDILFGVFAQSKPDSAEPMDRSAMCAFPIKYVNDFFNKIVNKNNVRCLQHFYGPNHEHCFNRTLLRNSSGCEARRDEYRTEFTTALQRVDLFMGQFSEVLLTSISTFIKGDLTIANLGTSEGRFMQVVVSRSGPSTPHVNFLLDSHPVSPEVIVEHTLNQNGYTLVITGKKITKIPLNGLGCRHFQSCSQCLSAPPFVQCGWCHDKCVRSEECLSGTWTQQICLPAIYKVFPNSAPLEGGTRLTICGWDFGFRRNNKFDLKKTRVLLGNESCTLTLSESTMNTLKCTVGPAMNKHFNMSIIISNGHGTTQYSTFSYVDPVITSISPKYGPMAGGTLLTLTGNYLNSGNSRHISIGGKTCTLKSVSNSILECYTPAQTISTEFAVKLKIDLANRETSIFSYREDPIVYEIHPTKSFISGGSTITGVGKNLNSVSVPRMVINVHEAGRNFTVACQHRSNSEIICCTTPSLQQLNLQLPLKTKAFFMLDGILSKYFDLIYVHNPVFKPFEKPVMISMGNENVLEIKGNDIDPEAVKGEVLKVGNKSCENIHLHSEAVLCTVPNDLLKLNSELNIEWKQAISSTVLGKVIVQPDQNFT
The assay can be described thus: ELISA on human cMET, ratio to parental P3D12.

Assay [8] has as its target T3, rat cMET. As to the kind of experiment: ELISA, antibody titrated on cMet of the named species, OD 450 nm.
Assay [9] has as its target T1, mouse cMET. The assay is described as above. The source holds these as a separate data set.
Assay [10] addresses T2, Canine. The assay is described as above.
The target of assay [11] is T3, rat cMET. Described as above. The source holds these as a separate data set.
For assay [12], the target named is T1, mouse cMET. The assay is described as above. The source holds these as a separate data set.
Assay [13] addresses T2, Canine. The description is as above.
Assay [14] addresses human cMET-Fc fusion protein (human) [IgG part: P01857]. The assay can be described thus: SPR with hMet-Fc.

Where a chain is given by its changes, count along the chain named. Where two headings read alike, the source gives them in different places.

Data on twelve molecules can be found in patent US20190330354A1 (MITSUBISHI TANABE PHARMA, published 2019).

For orientation: Kd means the constant that tells how readily two partners part at equilibrium. A low value points to tighter binding.

B1: F6B1P3D12 (antibody, V domains shown)
VH: QVQLQQSGAELAKPGASVKMSCRASGYTFTSYWMHWVKQRPGQGLDWIGYIKPSTDNTEYNQKFKDKATLTADKSSSTAYMQLSSLTSEDSAVYYCARSYGNYPLMDYWGQGTSVTVSS
VL: QIVLTQSPAIMSASPGEKVTLTCSASSSVTSNYLYWYQQKPGSSPKLWIYSTSNLASGVPARFSGSGSGTSYSLTISSMEAEDAASYFCHQWSSYPPTFGSGTKLEIKR
notes: Mouse monoclonal antibody from a hybridoma; also called Mouse P3D12; P3D12(mouse)
B1: the binding result with mouse cMET [1] is given as “no binding (tested: 10 ug/mL (axis value 1, log10))”; in the assay with Canine [2] it was “no binding (tested: 10 ug/mL (axis value 1, log10))”.

B2: F6BP2D4 (antibody, V domains shown)
VH: B1 VH with R23K, D46E, K52N, N57Y, T58I, D73G, Y103F
VL: B1 VL with T30S, A61V
notes: Mouse monoclonal antibody
For B2, the binding result is listed as “no binding (tested: 10 ug/mL (axis value 1, log10))” in the assay with mouse cMET [3] and “no binding (tested: 10 ug/mL (axis value 1, log10))” with Canine [4].

B3: F6B1P1E2 (antibody, V domains shown)
VH: B1 VH with R23K, D46E, K52N, N57Y, S77T, A97V
VL: B1 VL with T30S, Q38H, A61V
notes: Mouse monoclonal antibody
Regarding B3, the binding result with mouse cMET [5] is “no binding (tested: 10 ug/mL (axis value 1, log10))”; with Canine [6], “no binding (tested: 10 ug/mL (axis value 1, log10))”.

B4: G2vka (antibody, V domains shown)
VH: B1 VH with Q5V, L11V, R23K, R40A, S76T, T87R, S91T, S114T
VL: QIVLTQSPATLSLSPGERATLSCRASQSVTSNYLYWYQQKPGSSPRLLIYSTSNLASGVPARFSGSGSGTDYTLTISRLEPEDFASYFCHQWSSYPPTFGSGTKLEIKR
notes: As G2aka; also called humanized P3D12, HC VH-ven, LC abb/sdr
On to B4, for which, in the assay with rat cMET [7], the “ELISA rMET vs parental” value turned out to be 2.7. Also, the “ELISA hMET vs parental” value in the assay with human cMET was determined as 0.9.

B5: G2vkc (antibody, V domains shown)
VH: B1 VH with Q5V, L11V, R23K, R40A, S76T, T87R, S91T, S114T
VL: B4 VL with R24S, Q27S, D71S
notes: As G2aka; also called humanized P3D12, HC VH-ven, LC cdr
In the case of B5, in the assay with rat cMET [7], the “ELISA rMET vs parental” value was 1.9. Besides, in the assay with human cMET, the “ELISA hMET vs parental” value was 1.1.

B6: G2vkv (antibody, V domains shown)
VH: B1 VH with Q5V, L11V, R23K, R40A, S76T, T87R, S91T, S114T
VL: B1 VL with I10T, K18R, T22S, K46R, S73T, S78R, A81P
notes: As G2aka; reported insoluble in PBS; also called humanized P3D12, HC VH-ven, LC ven
Regarding B6, in the assay with rat cMET [7], the “ELISA rMET vs parental” value is 1.6. Besides, the “ELISA hMET vs parental” value in the assay with human cMET is 1.8.

B7: G2akv (antibody, V domains shown)
VH: QVQLVQSGAEVKKPGASVKVSCKASGYTFTSYWMHWVKQAPGQGLDWMGYIKPSTDNTEYAQKFQGRVTLTADKSTSTAYMELSSLRSEDTAVYYCARSYGNYPLMDYWGQGTTVTVSS
VL: B1 VL with I10T, K18R, T22S, K46R, S73T, S78R, A81P
notes: As G2aka; reported insoluble in PBS; also called humanized P3D12, HC VH-abb/sdr, LC ven
On to B7, for which the “ELISA rMET vs parental” value with rat cMET [7] turned out to be 1.3. Also, in the assay with human cMET, the “ELISA hMET vs parental” value was 1.8.

B8: G2akc (antibody, V domains shown)
VH: B7 VH
VL: B4 VL with R24S, Q27S, D71S
notes: As G2aka; also called humanized P3D12, HC VH-abb/sdr, LC cdr
As to B8, the “ELISA rMET vs parental” value with rat cMET [7] was found to be 0.7. Besides, the “ELISA hMET vs parental” value with human cMET amounted to 1.3.

B9: G2vkf (antibody, V domains shown)
VH: B1 VH with Q5V, L11V, R23K, R40A, S76T, T87R, S91T, S114T
VL: B1 VL with M11L, A13L, K18R, V19A, T22S, W48L, S73T, M79L
notes: As G2aka; also called humanized P3D12, HC VH-ven, LC fra
On to B9, for which the “ELISA rMET vs parental” value with rat cMET [7] came out at 1. The “ELISA hMET vs parental” value in the assay with human cMET was 1.1.

B10: F5P5B9 (antibody, V domains shown)
VH: QVQLKESGPGLVAPSQSLSITCTVSGFSLTNYGVNWVRQPPGKGLEWLGLIWGGGDTDYNSALKSRLSISKDNSKSQVFLKMETNSLQTDDTARYYCARDYYGFDYWGQGTTLTVSS
VL: DVLMTQTPLSLPVSLGDQASISCRSSQTIVHGTGNTYLEWYLQKPGQSPKLLIYKVSNRFSGVPDRFSGSGSGTDFTLKISRVEAEDLGVYYCFQGSHVPYTFGGGTKLEIKR
notes: Mouse monoclonal antibody
For B10, the binding result in the assay with rat cMET [8], with mouse cMET [9] and with Canine [10] was “no binding (tested: 10 ug/mL)” throughout.

B11: F6AP8E2 (antibody, V domains shown)
VH: EVQLQQSGAELVRPGALVKLSCKASGFNINDYFMHWVKQRPEQGLEWIGWIDPENGNTIYDPKFQGKASITADTSSNTAYLQLSSLTSEDTAVYYCARGGNYLRESYYYAMDYWGQGTSVTVSS
VL: DIVMTQSPKSMSMSVGERVTLSCKASENVGTYVSWYQQKPDQSPKLLIYGASNRYTGVPDRFTGSGSATDFTLTISSVQAEDLADYHCGQSYSYPLTFGAGTKLELKR
notes: Mouse monoclonal antibody
For the molecule B11, the binding result with rat cMET [11] is “no binding (tested: 10 ug/mL (axis value 1, log10))”; with mouse cMET [12], “no binding (tested: 10 ug/mL (axis value 1, log10))”; with Canine [13], “no binding (tested: 10 ug/mL (axis value 1, log10))”.

B12: ABF46 (antibody, from another filing, V domains shown)
VH: EVKLVESGGGLVQPGGSLRLSCATSGFTFTDYYMSWVRQPPGKALEWLGFIRNKANGYTTEYSASVKGRFTISRDNSQSILYLQMDTLRAEDSATYYCARDNWFAYWGQGTLVTVSA
VL: DILMTQSPSSLTVSAGEKVTMSCKSSQSLLASGNQNNYLAWHQQKPGRSPKMLIIWASTRVSGVPDRFIGSGSGTDFTLTINSVQAEDLAVYYCQQSYSAPLTFGAGTKLELKR
In the case of B12, the dissociation constant (Kd) in assay [14] amounted to 0.7 nM.
